Measurements from the supplement of paper PMC7877785.
± gives the uncertainty stated by the source.

Assay: self-splicing fitness, log relative to wild type (ln ratio); higher = more splicing; Tetrahymena group I intron in knt gene, E. coli kanamycin selection, DiMSum; sequences stand for … in CUCUCU…GGAGGGAAAAGUUAUCAGGCAUGCACCUGGUAGCUAGUCUUUAAACCAAUAGAUUGCAUCGGUUUAAAAGGCAAGACCGUCAAAUUGCGGGAAAGGGGUCAACAGCCGUUCAGUACCAAGUCUCAGGGGAAACUUUGAGAUGGCCUUGCAAAGGGUAUGGUAAUAAGCUGACGGACAUGGUCCUAACCACGCAGCCAAGUCCUAAGUCAACAGAUCUUCUGUUGAUAUGGAUGCAGUUCACAGACUAAAUGUCGGUCGGGGAAGAUGUAUUCUUCUCAUAAGAUAUAGUCGGACCUCUCCUUAAUGGGAGCUAGCGGAUGAAGUGAUGCAACACUGGAGCCGCUGGGAACUAAUUUGUAUGCGAAAGUAUAUUGAUUAGUUUUGGAGUACUCGUGGUCG
Outline: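 Pooled colonies went to amplicon sequencing on an Illumina HiSeq 2500 after six replicate transformations. The plates were LB agar with 100 μg/mL carbenicillin, 50 μM IPTG and 0.2% rhamnose, with or without 25 μg/mL kanamycin, incubated overnight at 37°C or 30°C. The E. coli BL21(DE3) library had all eight P1ex-region intron nucleotides randomised, the intron placed in the knt kanamycin-resistance gene on pET-22b(+). DiMSum fitness is the error-weighted combination of replicate fold changes, kanamycin against none, normalised to wild type.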

| Sequence | self-splicing fitness (ln) (30 °C) | self-splicing fitness (ln) (37 °C) |
| --- | --- | --- |
| AAUUAGCAAUAUUACGCUCG | 0.0366 ± 0.13 | 0.217 ± 0.16 |
| AAUUAGCAAUAUUACGCUUC | -2.91 ± 0.39 | -3.71 ± 0.39 |
| AAUUAGCAAUAUUACGGAAG |  | -0.915 ± 0.42 |
| AAUUAGCAAUAUUACGGGCU | -2.04 ± 0.23 | -1.64 ± 0.26 |
| AAUUAGCAAUAUUACGGGUC | -1.55 ± 0.24 | -0.486 ± 0.24 |
| AAUUAGCAAUAUUACGGGUG | -1.04 ± 0.066 | -0.54 ± 0.083 |
| AAUUAGCAAUAUUACGGUAG | -4.2 ± 0.39 | -1.66 ± 0.24 |
| AAUUAGCAAUAUUACGGUGC | -2.19 ± 0.26 | -3 ± 0.43 |
| AAUUAGCAAUAUUACGUACC | -0.499 ± 0.21 | -0.307 ± 0.29 |
| AAUUAGCAAUAUUACGUAGA | -1.75 ± 0.14 | -2.03 ± 0.17 |
| AAUUAGCAAUAUUACGUCGA | -1.22 ± 0.14 | -0.488 ± 0.15 |
| AAUUAGCAAUAUUACGUGUU | -1.05 ± 0.11 | -1.78 ± 0.13 |
| AAUUAGCAAUAUUACGUUCA | -0.618 ± 0.1 | -0.409 ± 0.12 |
| AAUUAGCAAUAUUACGUUGC | -3.47 ± 0.46 | -2.75 ± 0.38 |
| AAUUAGCAAUAUUACGUUGU | -3.79 ± 0.15 | -1.72 ± 0.15 |
| ACAAAGCAAUAUUACGACCA | -0.633 ± 0.12 | -0.407 ± 0.13 |
| ACAAAGCAAUAUUACGACGG | -1.06 ± 0.07 | -0.665 ± 0.093 |
| ACAAAGCAAUAUUACGAGAG | -2.93 ± 0.16 | -1.1 ± 0.1 |
| ACAAAGCAAUAUUACGAGUC | -4.66 ± 0.25 | -2.95 ± 0.23 |
| ACAAAGCAAUAUUACGAUUG | -2.14 ± 0.069 | -1.55 ± 0.092 |
| ACAAAGCAAUAUUACGCAUG | -1.82 ± 0.075 | -0.868 ± 0.084 |
| ACAAAGCAAUAUUACGCCGU | -2.44 ± 0.16 | -1.41 ± 0.21 |
| ACAAAGCAAUAUUACGCCUC | -2.8 ± 0.28 | -2.2 ± 0.3 |
| ACAAAGCAAUAUUACGCGAU | -2.75 ± 0.14 | -2.22 ± 0.16 |
| ACAAAGCAAUAUUACGCGCU | -0.245 ± 0.053 | 0.00495 ± 0.066 |
| ACAAAGCAAUAUUACGCUCA | -0.782 ± 0.088 | 0.156 ± 0.11 |

| Sequence | self-splicing fitness (ln) (30 °C) | self-splicing fitness (ln) (37 °C) |
| --- | --- | --- |
| ACAAAGCAAUAUUACGCUGG | -1.3 ± 0.095 | -0.426 ± 0.12 |
| ACAAAGCAAUAUUACGGAAU | -3.21 ± 0.19 | -1.82 ± 0.19 |
| ACAAAGCAAUAUUACGGAUC | -2.77 ± 0.12 | -0.403 ± 0.11 |
| ACAAAGCAAUAUUACGGCGC | -0.996 ± 0.076 | 0.358 ± 0.12 |
| ACAAAGCAAUAUUACGGCUC | -0.452 ± 0.078 | -0.217 ± 0.12 |
| ACAAAGCAAUAUUACGGGCA | -1.56 ± 0.069 | -1.28 ± 0.056 |
| ACAAAGCAAUAUUACGGUCC | -1.7 ± 0.11 | -0.977 ± 0.16 |
| ACAAAGCAAUAUUACGGUUC | -3.12 ± 0.13 | -1.93 ± 0.17 |
| ACAAAGCAAUAUUACGUAGU | -2.57 ± 0.085 | -1.43 ± 0.095 |
| ACAAAGCAAUAUUACGUCCC | -0.873 ± 0.23 | -1.78 ± 0.25 |
| ACAAAGCAAUAUUACGUUUA | -3.55 ± 0.13 | -0.482 ± 0.088 |
| ACACAGCAAUAUUACGAAGA | -2.48 ± 0.1 | -1.99 ± 0.12 |
| ACACAGCAAUAUUACGACAG | -1.62 ± 0.054 | -0.914 ± 0.077 |
| ACACAGCAAUAUUACGAUAA | -2.46 ± 0.098 | -1.97 ± 0.11 |
| ACACAGCAAUAUUACGCACG | -0.797 ± 0.093 | -0.607 ± 0.12 |
| ACACAGCAAUAUUACGCGAG | -1.74 ± 0.053 | -0.504 ± 0.061 |
| ACACAGCAAUAUUACGCGGA | -1.98 ± 0.072 | -1.1 ± 0.07 |
| ACACAGCAAUAUUACGGAGC | -2.36 ± 0.13 | -1.52 ± 0.12 |
| ACACAGCAAUAUUACGGAGG | -2.69 ± 0.076 | -2.15 ± 0.098 |
| ACACAGCAAUAUUACGGGCU | -2.08 ± 0.093 | -1.11 ± 0.13 |
| ACACAGCAAUAUUACGGUUU | -1.05 ± 0.04 | -0.00178 ± 0.06 |
| ACACAGCAAUAUUACGUAAC | -3.39 ± 0.12 | -1.81 ± 0.14 |
| ACACAGCAAUAUUACGUAAU | -2.76 ± 0.085 | -1.73 ± 0.12 |
| ACACAGCAAUAUUACGUAGA | -3.64 ± 0.16 | -1.38 ± 0.11 |
| ACACAGCAAUAUUACGUAUU | -3.09 ± 0.089 | -2.29 ± 0.13 |
| ACACAGCAAUAUUACGUGAA | -1.84 ± 0.055 | -1.11 ± 0.079 |

| Sequence | self-splicing fitness (ln) (30 °C) | self-splicing fitness (ln) (37 °C) |
| --- | --- | --- |
| ACACAGCAAUAUUACGUGUG | -3.55 ± 0.1 | -1.44 ± 0.065 |
| ACACAGCAAUAUUACGUUAA | -2.79 ± 0.13 | -2.12 ± 0.12 |
| ACAGAGCAAUAUUACGAAAA |  | -3.05 ± 0.4 |
| ACAGAGCAAUAUUACGACUG | -1.05 ± 0.11 | -1.54 ± 0.15 |
| ACAGAGCAAUAUUACGAGGU | -3.36 ± 0.11 | -2.66 ± 0.15 |
| ACAGAGCAAUAUUACGAUGU | -3.39 ± 0.16 | -2.38 ± 0.18 |
| ACAGAGCAAUAUUACGCCCG | -3.2 ± 0.21 | -1.63 ± 0.18 |
| ACAGAGCAAUAUUACGCUAU | -3.38 ± 0.27 | -1.12 ± 0.19 |
| ACAGAGCAAUAUUACGCUUU | -2.28 ± 0.26 | -2.45 ± 0.23 |
| ACAGAGCAAUAUUACGGCAA | -0.636 ± 0.22 | -2.08 ± 0.33 |
| ACAGAGCAAUAUUACGGCCU | -3.08 ± 0.29 | -2.6 ± 0.25 |
| ACAGAGCAAUAUUACGGCGU | -1.24 ± 0.12 | -0.0954 ± 0.11 |
| ACAGAGCAAUAUUACGGGGC | -3.53 ± 0.17 | -2.73 ± 0.22 |
| ACAGAGCAAUAUUACGGGGU | -4.03 ± 0.34 | -2.39 ± 0.3 |
| ACAGAGCAAUAUUACGGGUC | -2.99 ± 0.18 | -2.89 ± 0.27 |
| ACAGAGCAAUAUUACGGUCC | -2.18 ± 0.14 | -2.05 ± 0.39 |
| ACAGAGCAAUAUUACGUAAC | -2.71 ± 0.11 | -3.27 ± 0.26 |
| ACAGAGCAAUAUUACGUAGC | -3.27 ± 0.33 | -2.56 ± 0.41 |
| ACAGAGCAAUAUUACGUAUA | -3.37 ± 0.26 | -2.72 ± 0.31 |
| ACAGAGCAAUAUUACGUGAG | -2.08 ± 0.11 | -1.55 ± 0.1 |
| ACAGAGCAAUAUUACGUGCG | -2.89 ± 0.29 | -1.75 ± 0.28 |
| ACAUAGCAAUAUUACGAAGG | -3.69 ± 0.28 | -1.33 ± 0.18 |
| ACAUAGCAAUAUUACGACCU | -0.446 ± 0.1 | 0.527 ± 0.13 |
| ACAUAGCAAUAUUACGACUG | -0.814 ± 0.065 | -0.36 ± 0.09 |
